Source: IntAct's records for PubMed 24115911

B1: Urease accessory protein UreF (Helicobacter pylori), Q09065 (parent)
chain: MDKGKSVKSTEKSVGMPPKTPKTDNNAHVDNEFLILQVNDAVFPIGSYTHSFGLETYIQQKKVTNKESALEYLKANLSSQFLYTEMLSLKLTYESALQQDLKKILGVEEVIMLSTSPMELRLANQKLGNRFIKTLQAMNELDMGEFFNAYAQKTKDPTHATSYGVFAASLGIELKKALRHYLYAQTSNMVINCVKSVPLSQNDGQKILLSLQSPFNQLIEKTLELDESHLCTASVQNDIKAMQHESLYSRLYMS

Variants of: B1
Details: with ureg_helpy ureG

Variant | effect of a mutation on the interaction
MDKGKSVKSTEKSVGMPPKTPKTDNNAHVDNEFLILQVNDAVFPIGSYTHSFGLETYIQQKKVTNKESALEYLKANLSSQFLYTEMLSLKLTYESALQQDLKKILGVEEVIMLSTSPMELRLANQKLGNRFIKTLQAMNELDMGEFFNAYAQKTKDPTHATSYGVFAASLGIELKKALAHYLDAQTSNMVINCVKSVPLSQNDGQKILLSLQSPFNQLIEKTLELDESHLCTASVQNDIKAMQHESLYSRLYMS [R179A;Y183D] | disrupting interaction strength
